In the supplement of paper PMC10065799, “High-throughput profiling of sequence recognition by tyrosine kinases and SH2 domains using bacterial peptide display” (eLife, 2023) one finds SH2 binding enrichment and phosphorylation enrichment data, which are given here for eight sequences.

The target in one data set is c-Src SH2. As to the kind of experiment: SH2 binding enrichment of the phosphorylated peptide, bacterial display (enrichment ratio); higher = better substrate or ligand; peptides without Tyr show the background.
A further data set has as its target Grb2 SH2 (UniProt P62993). The data set is described as above.
The target in the next data set is SHP2-C SH2. The description is as above.
The next data set deals with MERTK (UniProt Q12866). The experiment in a line: phosphorylation enrichment, bacterial display (enrichment ratio); higher = better substrate or ligand; peptides without Tyr show the background.
MERTK, sequence (Q12866 whole entry, looked up): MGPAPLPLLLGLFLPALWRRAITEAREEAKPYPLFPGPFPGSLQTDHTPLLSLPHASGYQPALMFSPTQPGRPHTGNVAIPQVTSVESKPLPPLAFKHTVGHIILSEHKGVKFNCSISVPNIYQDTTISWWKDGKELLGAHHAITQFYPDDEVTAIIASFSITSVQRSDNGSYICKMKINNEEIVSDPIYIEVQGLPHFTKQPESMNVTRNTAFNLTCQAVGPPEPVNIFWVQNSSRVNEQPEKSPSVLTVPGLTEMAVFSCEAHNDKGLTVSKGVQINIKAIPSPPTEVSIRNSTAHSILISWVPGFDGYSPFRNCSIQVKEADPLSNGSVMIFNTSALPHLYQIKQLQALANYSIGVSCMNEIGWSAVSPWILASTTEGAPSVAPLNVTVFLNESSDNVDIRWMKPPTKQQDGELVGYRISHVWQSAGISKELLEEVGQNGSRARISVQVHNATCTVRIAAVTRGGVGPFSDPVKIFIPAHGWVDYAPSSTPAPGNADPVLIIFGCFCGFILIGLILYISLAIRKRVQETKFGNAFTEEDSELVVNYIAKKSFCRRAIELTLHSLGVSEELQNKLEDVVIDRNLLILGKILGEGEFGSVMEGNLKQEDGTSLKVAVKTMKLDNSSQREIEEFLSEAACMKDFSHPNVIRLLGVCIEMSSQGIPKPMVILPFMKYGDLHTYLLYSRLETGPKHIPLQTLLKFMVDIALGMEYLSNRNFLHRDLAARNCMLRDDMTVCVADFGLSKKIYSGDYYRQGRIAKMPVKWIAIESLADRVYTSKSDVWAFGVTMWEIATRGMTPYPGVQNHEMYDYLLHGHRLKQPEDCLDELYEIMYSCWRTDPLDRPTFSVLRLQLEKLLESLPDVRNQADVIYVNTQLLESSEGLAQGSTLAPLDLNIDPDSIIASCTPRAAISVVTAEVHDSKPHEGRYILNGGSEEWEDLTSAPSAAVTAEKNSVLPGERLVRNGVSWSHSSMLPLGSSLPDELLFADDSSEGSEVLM
The next data set has as its target Hck (UniProt P08631). The description is as above.
For a further data set, the system named is AncSZ. The data set is described as above.
The next data set concerns the target EPHB2 (UniProt P29323). The description is as above.
The subject of the next data set is c-Abl (mouse). The data set is described as above.
Another data set concerns the target Fyn (UniProt P06241). The description is as above.
Another data set has as its system c-Src. The data set is described as above.
The next data set concerns the target Jak2 (UniProt O60674). The description is as above.
The target in a further data set is EPHB1 (UniProt P54762). The data set is described as above.
EPHB1, sequence (P54762 whole entry, looked up): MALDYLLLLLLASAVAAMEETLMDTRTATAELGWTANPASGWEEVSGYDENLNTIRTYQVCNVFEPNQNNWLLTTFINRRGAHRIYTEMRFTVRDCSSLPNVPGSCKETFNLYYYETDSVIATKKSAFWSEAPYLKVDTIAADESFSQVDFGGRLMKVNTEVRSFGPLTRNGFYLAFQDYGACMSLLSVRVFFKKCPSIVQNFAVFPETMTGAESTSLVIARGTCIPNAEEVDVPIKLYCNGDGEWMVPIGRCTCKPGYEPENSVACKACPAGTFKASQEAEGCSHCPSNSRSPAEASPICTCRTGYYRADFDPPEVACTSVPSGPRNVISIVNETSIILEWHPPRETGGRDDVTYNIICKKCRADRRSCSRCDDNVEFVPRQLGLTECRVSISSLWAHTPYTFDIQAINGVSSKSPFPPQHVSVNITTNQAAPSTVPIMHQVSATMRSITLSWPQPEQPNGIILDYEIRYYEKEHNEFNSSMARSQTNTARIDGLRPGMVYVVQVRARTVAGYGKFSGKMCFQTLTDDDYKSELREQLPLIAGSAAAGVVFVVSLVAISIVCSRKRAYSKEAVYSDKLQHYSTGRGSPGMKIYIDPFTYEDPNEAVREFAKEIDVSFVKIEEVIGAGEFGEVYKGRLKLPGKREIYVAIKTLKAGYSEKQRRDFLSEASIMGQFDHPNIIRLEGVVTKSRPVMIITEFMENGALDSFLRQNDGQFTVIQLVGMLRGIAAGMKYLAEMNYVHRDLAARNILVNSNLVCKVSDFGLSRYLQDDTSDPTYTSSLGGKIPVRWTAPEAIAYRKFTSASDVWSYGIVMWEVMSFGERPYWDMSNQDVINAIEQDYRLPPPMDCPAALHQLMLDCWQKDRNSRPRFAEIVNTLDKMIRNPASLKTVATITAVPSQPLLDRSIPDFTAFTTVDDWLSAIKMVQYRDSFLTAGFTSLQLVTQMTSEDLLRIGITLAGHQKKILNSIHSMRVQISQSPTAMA
For another data set, the target named is FGFR3 (UniProt P22607). The data set is described as above.
The next data set addresses FGFR1 (UniProt P11362). Described as above.
Another data set concerns the target Fes (UniProt P07332). Described as above.
The test system of the next data set is Fer (mouse). The description is as above.
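Wherever SH2 binding enrichment of the phosphorylated peptide, bacterial display is given: peptide library displayed on the E. coli surface as eCPX fusions, selected cells deep-sequenced, score is each peptide's frequency after selection divided by its frequency in the input.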
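Wherever phosphorylation enrichment, bacterial display is given: 11-residue human phosphosite peptides and single-mutation variants displayed on the E. coli surface, counted by deep sequencing, each peptide's frequency after selection divided by its frequency in the unselected input library; frequency after pTyr selection over input frequency; kinase dosed for 20-30% of maximal phosphorylation in three min.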

Hck, sequence (P08631 whole entry, looked up): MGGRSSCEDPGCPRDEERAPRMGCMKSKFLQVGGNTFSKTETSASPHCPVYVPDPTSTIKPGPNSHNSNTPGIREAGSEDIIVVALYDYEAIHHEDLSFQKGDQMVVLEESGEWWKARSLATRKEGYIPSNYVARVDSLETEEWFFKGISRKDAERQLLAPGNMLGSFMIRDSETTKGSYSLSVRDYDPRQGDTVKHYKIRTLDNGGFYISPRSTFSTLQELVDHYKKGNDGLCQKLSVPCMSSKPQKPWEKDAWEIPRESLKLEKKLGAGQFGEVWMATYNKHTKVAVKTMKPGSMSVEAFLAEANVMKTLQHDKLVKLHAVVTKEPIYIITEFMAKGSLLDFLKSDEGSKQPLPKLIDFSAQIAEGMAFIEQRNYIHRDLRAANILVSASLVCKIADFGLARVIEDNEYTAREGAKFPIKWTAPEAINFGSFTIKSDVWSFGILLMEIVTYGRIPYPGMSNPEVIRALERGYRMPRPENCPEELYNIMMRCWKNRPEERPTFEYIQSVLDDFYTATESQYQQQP
FGFR1, sequence (P11362 whole entry, looked up): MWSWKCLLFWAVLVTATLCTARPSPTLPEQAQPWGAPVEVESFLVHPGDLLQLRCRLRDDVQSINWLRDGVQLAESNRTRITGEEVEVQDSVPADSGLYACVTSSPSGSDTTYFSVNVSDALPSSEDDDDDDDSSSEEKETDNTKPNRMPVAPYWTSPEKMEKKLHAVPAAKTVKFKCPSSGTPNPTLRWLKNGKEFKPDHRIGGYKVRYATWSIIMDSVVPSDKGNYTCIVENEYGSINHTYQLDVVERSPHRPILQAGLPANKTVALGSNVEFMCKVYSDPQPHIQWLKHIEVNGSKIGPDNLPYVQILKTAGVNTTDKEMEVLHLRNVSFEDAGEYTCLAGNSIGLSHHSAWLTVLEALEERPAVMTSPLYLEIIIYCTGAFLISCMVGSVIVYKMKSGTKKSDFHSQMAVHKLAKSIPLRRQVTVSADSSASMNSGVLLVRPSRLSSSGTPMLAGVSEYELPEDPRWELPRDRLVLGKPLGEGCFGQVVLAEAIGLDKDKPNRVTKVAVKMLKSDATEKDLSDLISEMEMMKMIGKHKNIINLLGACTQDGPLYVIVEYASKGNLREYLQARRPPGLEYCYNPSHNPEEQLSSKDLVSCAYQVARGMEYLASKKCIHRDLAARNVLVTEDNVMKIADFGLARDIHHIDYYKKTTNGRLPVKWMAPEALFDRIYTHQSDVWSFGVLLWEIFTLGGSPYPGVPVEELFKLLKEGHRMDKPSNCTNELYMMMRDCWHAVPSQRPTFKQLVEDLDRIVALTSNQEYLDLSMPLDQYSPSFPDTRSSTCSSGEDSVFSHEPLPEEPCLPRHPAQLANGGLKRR
Fyn, sequence (P06241 whole entry, looked up): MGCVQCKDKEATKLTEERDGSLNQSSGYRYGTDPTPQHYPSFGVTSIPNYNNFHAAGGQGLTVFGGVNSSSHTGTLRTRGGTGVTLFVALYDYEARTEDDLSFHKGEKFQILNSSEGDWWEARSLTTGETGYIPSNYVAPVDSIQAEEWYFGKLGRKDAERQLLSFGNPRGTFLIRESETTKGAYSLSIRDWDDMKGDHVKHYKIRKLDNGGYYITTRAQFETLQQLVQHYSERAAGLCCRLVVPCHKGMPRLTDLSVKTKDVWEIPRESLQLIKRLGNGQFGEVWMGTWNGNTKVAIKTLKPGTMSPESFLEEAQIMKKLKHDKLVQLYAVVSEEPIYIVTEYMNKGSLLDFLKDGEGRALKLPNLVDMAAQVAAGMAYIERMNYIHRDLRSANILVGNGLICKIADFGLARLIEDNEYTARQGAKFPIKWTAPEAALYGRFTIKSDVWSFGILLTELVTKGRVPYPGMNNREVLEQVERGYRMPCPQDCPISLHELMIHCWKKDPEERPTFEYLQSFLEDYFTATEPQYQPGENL
Grb2 SH2, sequence (P62993 whole entry, looked up): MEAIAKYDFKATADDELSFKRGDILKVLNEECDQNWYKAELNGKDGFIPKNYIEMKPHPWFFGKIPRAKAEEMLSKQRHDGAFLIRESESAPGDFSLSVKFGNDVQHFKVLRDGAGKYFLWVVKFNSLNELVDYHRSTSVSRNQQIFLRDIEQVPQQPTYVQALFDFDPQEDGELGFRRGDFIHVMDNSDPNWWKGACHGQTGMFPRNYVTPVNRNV
Fes, sequence (P07332 whole entry, looked up): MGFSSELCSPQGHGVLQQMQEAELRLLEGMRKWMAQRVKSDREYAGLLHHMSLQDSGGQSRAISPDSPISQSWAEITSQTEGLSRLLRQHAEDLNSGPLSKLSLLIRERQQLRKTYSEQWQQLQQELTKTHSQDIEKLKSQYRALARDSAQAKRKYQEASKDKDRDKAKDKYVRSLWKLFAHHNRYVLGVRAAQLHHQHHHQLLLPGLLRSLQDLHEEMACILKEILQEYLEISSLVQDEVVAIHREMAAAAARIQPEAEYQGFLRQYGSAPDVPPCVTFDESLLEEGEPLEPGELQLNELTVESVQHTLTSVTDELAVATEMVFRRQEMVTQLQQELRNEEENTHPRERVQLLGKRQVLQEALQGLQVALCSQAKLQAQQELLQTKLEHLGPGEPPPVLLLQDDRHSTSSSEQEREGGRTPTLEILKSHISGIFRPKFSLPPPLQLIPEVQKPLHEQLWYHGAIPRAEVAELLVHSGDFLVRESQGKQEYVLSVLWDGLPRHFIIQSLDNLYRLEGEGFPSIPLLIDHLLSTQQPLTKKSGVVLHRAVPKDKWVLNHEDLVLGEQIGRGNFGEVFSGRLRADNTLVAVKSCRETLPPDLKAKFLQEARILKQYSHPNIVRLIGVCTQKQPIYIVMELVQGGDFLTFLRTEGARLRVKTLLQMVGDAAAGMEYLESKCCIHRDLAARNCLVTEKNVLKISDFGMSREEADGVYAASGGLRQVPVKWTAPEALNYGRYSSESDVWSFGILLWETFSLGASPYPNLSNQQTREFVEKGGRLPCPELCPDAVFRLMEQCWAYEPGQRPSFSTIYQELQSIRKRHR

For PVGVLYKVKVF [PTS_Y128_YF], the results for the SH2 binding enrichment with c-Src SH2, with Grb2 SH2 and with SHP2-C SH2 were 0.418, 0.706 and 0.607, respectively. In addition, the phosphorylation enrichment with MERTK turned out to be 0.381; with Hck, 0.619; in the data set with AncSZ, 1.45; with EPHB2, 0.906; in the data set with c-Abl (mouse), 0.882; with Fyn it was 0.716. In addition, the phosphorylation enrichment in the data set on c-Src turned out to be 0.388; in the data set with Jak2 it was 1.21; with EPHB1 it was 1.14; with FGFR3, 1.4; with FGFR1, 0.842; with Fes, 1.61. Besides, the phosphorylation enrichment in the data set on Fer (mouse) is 0.659.

Consider KELAKYFKLHH [AK7_Y390_N389K_YF], for which the SH2 binding enrichment with c-Src SH2 is 0.497; with Grb2 SH2 it was 0.759; with SHP2-C SH2 it was 0.635. For the same sequence, the phosphorylation enrichment with MERTK came out at 0.51; in the data set with Hck, 0.484; in the data set with AncSZ, 0.596; with EPHB2, 0.459; with c-Abl (mouse), 0.439; with Fyn, 0.505. Besides, the phosphorylation enrichment with c-Src turned out to be 0.493; in the data set with Jak2 it was 0.487; with EPHB1 it was 0.394; with FGFR3 it was 0.543; with FGFR1, 0.456; with Fes, 0.626. Also, in the data set with Fer (mouse), the phosphorylation enrichment turned out to be 0.466.

On to AAVPAYDKIRV [STXBP2_Y401], for which the SH2 binding enrichment with c-Src SH2 stood at 4.85; with Grb2 SH2, 0.803; in the data set with SHP2-C SH2 it was 0.503. For the same sequence, the phosphorylation enrichment was determined as 0.48 with MERTK; 1.36 with Hck; 0.64 in the data set on AncSZ; 0.355 in the data set with EPHB2; 0.569 in the data set with c-Abl (mouse); 0.344 in the data set with Fyn. In addition, the phosphorylation enrichment with c-Src turned out to be 0.452; with Jak2 it was 0.874; with EPHB1, 0.372; with FGFR3, 0.541; in the data set with FGFR1 it was 0.321; with Fes, 0.714. Besides, the phosphorylation enrichment in the data set on Fer (mouse) was found to be 2.02.

Take ARDVIYIIIPA [FRKtide_2014]: the values for the SH2 binding enrichment in the data set with c-Src SH2, in the data set with Grb2 SH2 and with SHP2-C SH2 were 1.44, 1.82 and 2.09, respectively. The phosphorylation enrichment with MERTK turned out to be 2.21; in the data set with Hck it was 1.23; in the data set with AncSZ it was 1.31; with EPHB2, 0.986; in the data set on c-Abl (mouse) it was 1.17; in the data set with Fyn, 0.873. For the same sequence, the phosphorylation enrichment is 1.52 in the data set on c-Src; 1.42 in the data set with Jak2; 2.48 in the data set with EPHB1; 2 in the data set with FGFR3; 2.92 in the data set with FGFR1; 1.36 with Fes. Moreover, the phosphorylation enrichment with Fer (mouse) came to 0.559.

With SRGRQYQELPR [KCNH2_Y1009], the SH2 binding enrichment amounted to 1.29 with c-Src SH2, 0.925 with Grb2 SH2 and 0.565 in the data set with SHP2-C SH2. Also, the phosphorylation enrichment with MERTK was 0.36; with Hck it was 0.527; in the data set with AncSZ it was 0.512; in the data set with EPHB2, 0.347; with c-Abl (mouse), 0.463; in the data set with Fyn, 0.317. Moreover, the phosphorylation enrichment in the data set on c-Src amounted to 0.441; with Jak2, 0.455; with EPHB1, 0.316; with FGFR3, 0.423; in the data set with FGFR1 it was 0.4; with Fes, 0.462. For the same sequence, the phosphorylation enrichment in the data set with Fer (mouse) came out at 0.349.

On to RGFRVCFTPDS [PTPRF_Y450_Y450C_YF], for which the SH2 binding enrichment with c-Src SH2 was found to be 0.338; with Grb2 SH2, 0.796; with SHP2-C SH2, 0.615. Moreover, the phosphorylation enrichment was 0.551 with MERTK; 1.65 with Hck; 1.09 in the data set on AncSZ; 0.462 with EPHB2; 1.32 in the data set on c-Abl (mouse); 0.521 in the data set with Fyn. Also, the phosphorylation enrichment in the data set on c-Src was determined as 0.549; with Jak2, 1.97; in the data set with EPHB1, 0.64; with FGFR3, 0.812; with FGFR1 it was 0.337; with Fes, 1.73. The phosphorylation enrichment in the data set on Fer (mouse) was 0.635.

As for KIKLNYTLPQD [NRAP_Y523_N519I], the SH2 binding enrichment came to 0.774 in the data set with c-Src SH2, 0.965 with Grb2 SH2 and 0.751 with SHP2-C SH2. The phosphorylation enrichment with MERTK amounted to 0.53; with Hck, 0.462; in the data set with AncSZ, 0.965; in the data set with EPHB2 it was 0.447; with c-Abl (mouse), 0.531; with Fyn, 0.454. The phosphorylation enrichment in the data set on c-Src was 0.454; in the data set with Jak2, 0.721; with EPHB1, 0.49; in the data set with FGFR3 it was 0.623; with FGFR1, 0.48; with Fes, 0.88. For the same sequence, in the data set with Fer (mouse), the phosphorylation enrichment stood at 0.513.

As to VECRVYAEDPY [PCCA_Y401], the SH2 binding enrichment with c-Src SH2 was found to be 0.603; in the data set with Grb2 SH2 it was 0.807; with SHP2-C SH2, 0.658. The phosphorylation enrichment turned out to be 0.56 with MERTK; 0.686 with Hck; 1.47 in the data set on AncSZ; 0.794 in the data set with EPHB2; 1.28 in the data set on c-Abl (mouse); 0.612 with Fyn. Besides, the phosphorylation enrichment in the data set with c-Src turned out to be 0.75; in the data set with Jak2, 1.26; with EPHB1 it was 0.908; with FGFR3, 1.13; with FGFR1, 0.619; in the data set with Fes, 1.73. Moreover, the phosphorylation enrichment in the data set with Fer (mouse) turned out to be 0.708.
